The text below walks through data of paper PMC3817407.

For one experiment, the target named is T1, ECF17_1691.
T1 chain: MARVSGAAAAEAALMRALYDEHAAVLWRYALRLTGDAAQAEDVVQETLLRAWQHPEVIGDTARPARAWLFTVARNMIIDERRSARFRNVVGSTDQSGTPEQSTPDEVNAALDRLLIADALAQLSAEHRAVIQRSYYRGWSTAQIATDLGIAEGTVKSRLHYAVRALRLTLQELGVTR

A further experiment addresses T2, ECF33_375.
T2 chain: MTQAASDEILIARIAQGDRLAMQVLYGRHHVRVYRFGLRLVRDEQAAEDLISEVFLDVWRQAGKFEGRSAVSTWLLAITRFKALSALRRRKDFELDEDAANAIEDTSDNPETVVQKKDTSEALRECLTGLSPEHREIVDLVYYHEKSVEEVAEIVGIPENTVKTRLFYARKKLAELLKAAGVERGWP

For another experiment, the target named is T3, ECF14_3200.
T3 chain: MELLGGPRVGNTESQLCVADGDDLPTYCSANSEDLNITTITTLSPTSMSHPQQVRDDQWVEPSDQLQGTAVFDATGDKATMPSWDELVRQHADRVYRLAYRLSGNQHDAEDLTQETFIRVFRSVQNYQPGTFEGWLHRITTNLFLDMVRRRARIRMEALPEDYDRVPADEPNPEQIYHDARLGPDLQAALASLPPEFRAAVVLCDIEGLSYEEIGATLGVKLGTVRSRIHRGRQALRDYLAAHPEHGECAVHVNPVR

In the next experiment the target is T4, ECF15_436.
T4 chain: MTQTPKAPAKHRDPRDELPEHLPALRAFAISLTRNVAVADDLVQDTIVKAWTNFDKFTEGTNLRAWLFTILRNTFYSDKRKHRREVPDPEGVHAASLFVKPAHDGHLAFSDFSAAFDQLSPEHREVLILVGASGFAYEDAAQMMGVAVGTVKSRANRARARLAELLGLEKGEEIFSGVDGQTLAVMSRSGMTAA

The target of the next experiment is T5, ECF38_1322.
T5 chain: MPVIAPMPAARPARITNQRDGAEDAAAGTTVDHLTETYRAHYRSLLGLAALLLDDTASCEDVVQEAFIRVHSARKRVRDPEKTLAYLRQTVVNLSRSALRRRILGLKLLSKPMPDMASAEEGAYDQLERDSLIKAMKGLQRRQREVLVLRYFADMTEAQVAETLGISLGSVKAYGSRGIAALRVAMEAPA

The target in a further experiment is T6, ECF04_1609.
T6 chain: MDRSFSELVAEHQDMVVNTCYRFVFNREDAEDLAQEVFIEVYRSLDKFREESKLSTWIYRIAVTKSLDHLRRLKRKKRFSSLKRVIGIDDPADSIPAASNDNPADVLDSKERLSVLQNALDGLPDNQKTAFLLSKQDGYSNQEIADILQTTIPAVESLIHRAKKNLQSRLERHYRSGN

In another experiment the target is T7, ECF14_1324.
T7 chain: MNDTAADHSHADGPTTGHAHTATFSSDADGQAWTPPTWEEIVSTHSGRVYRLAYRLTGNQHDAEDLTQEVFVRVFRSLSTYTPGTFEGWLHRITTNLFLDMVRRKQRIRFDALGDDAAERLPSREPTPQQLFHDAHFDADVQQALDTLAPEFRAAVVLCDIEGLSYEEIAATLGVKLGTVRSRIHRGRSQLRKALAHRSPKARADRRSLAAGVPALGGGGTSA

Another experiment deals with T8, ECF22_1147.
T8 chain: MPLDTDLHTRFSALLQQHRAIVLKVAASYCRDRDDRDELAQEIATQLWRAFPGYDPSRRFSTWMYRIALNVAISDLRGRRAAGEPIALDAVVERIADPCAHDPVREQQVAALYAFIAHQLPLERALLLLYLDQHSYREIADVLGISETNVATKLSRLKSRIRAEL

The target in a further experiment is T9, ECF15_524.
T9 chain: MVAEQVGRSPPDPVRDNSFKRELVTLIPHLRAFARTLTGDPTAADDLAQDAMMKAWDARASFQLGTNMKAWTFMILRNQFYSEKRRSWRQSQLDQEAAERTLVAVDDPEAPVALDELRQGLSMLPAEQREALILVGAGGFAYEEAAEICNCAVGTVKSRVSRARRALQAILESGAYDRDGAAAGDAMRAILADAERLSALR

The target in another experiment is T10, ECF28_1040.
T10 chain: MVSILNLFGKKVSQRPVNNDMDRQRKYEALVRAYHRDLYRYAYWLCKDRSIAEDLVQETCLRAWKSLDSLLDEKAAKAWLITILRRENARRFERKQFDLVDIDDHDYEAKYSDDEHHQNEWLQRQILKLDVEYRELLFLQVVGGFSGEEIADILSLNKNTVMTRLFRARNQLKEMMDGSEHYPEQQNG

The target of the next experiment is T11, ECF37_2513.
T11 chain: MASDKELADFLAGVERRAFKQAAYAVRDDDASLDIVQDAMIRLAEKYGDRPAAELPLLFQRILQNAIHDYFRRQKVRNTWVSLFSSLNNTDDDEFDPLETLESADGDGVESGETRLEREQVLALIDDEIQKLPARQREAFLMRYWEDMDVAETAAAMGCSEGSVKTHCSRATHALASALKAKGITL

In another experiment the target is T12, ECF28_1088.
T12 chain: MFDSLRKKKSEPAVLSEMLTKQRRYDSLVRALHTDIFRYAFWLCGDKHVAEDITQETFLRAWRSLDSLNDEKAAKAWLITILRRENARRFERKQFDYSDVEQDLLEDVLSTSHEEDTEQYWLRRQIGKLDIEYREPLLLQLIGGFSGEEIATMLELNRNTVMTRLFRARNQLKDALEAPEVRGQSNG

A further experiment has as its target T13, ECF16_3622.
T13 chain: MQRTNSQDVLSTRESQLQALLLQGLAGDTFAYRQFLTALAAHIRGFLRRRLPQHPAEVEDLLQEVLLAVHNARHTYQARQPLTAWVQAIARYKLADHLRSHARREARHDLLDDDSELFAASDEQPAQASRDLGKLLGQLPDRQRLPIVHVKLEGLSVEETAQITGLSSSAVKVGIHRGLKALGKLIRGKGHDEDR

The next experiment concerns the target T14, ECF33_423.
T14 chain: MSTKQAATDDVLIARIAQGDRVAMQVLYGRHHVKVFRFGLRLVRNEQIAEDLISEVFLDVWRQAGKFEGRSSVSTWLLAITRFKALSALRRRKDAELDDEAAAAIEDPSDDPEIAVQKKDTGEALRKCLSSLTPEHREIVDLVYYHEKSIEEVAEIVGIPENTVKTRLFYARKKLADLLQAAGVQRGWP

B1: AS01_3473 (protein)
chain: MSNYDNAELLALWLEGKLTPKQRDEFEQRCIQDSQFAEQVDAAAMVKIGADDYSSSEVPQWNKAATFEPQQANNSGSWLSGVSLVTSALAIVLVLTGTQVTTSEGELRIRFGSGQSEQALVKLVDSKLDAFKQNQQDAFTLYAQTLQQQQSESASQLTNYLLSSSRKERREDFAELIKFVNQQRSDDQLFYARQLNQLQQDVYHDATGVALESIQQ
As to B1, the fold repression with ECF17_1691 amounted to 1.97; with ECF33_375 it was 1.13; with ECF14_3200 it was 2.06; in the experiment with ECF15_436, 1.94; with ECF38_1322, 1.27; with ECF04_1609, 1.67. Also, the fold repression with ECF14_1324 stood at 2.61; with ECF22_1147, 3.4; in the experiment with ECF15_524, 1.61; in the experiment with ECF28_1040, 2.3; in the experiment with ECF37_2513, 1.38; in the experiment with ECF28_1088 it was 1.59. In addition, the fold repression came out at 2.47 in the experiment with ECF16_3622 and 1.1 in the experiment with ECF33_423.

B2: AS03_1244 (protein)
chain: MKQFDPDVNIRPKEDSIRHYSVPDDYFASFTDKLMAQIPAVKEENTVVVPSVALWPKLRPLLYLAASFLLMIGMFKAFSLFGVGSDTGRTTSTSAGLVALDHGDTRWSEDTDYRDFLHDNCAETVSDEWVLTDFSE
As for B2, the fold repression with ECF17_1691 turned out to be 1.44; in the experiment with ECF33_375 it was 1.51; with ECF14_3200, 2.19; with ECF15_436, 2.04; with ECF38_1322 it was 1.68; with ECF04_1609 it was 2.42. In addition, the fold repression was found to be 2.35 with ECF14_1324; 2.3 with ECF22_1147; 2.14 with ECF15_524; 1.68 with ECF28_1040; 1.89 in the experiment with ECF37_2513; 1.36 with ECF28_1088. Further, the figures for the fold repression in the experiment with ECF16_3622 and with ECF33_423 were 2.5 and 1.65, respectively.

B3: AS03_1198 (protein)
chain: MDKDFDFDNIGKRTPYRTPDNFFEETQRKILERTVDEQRKKRRLKRIIPTVIAVAAVLAGILFTPSLRYMNTDTPSASNILAVDKNNVTTDPVDKWIKELSDEELEELVSFSENDIFLN
For the molecule B3, the fold repression with ECF17_1691 was 0.986; with ECF33_375, 0.909; in the experiment with ECF14_3200, 0.974; with ECF15_436, 1.11; in the experiment with ECF38_1322 it was 1.07; with ECF04_1609 it was 1.54. Further, the fold repression with ECF14_1324 worked out at 0.798; with ECF22_1147, 1.28; with ECF15_524, 1.49; with ECF28_1040, 1.23; in the experiment with ECF37_2513, 1.07; with ECF28_1088, 1.24. The fold repression with ECF16_3622 worked out at 1.26; in the experiment with ECF33_423, 0.857.

B4: AS04_1609 (protein)
chain: MNRTTEQRNAEVMKTIGLLDQMPRVEVDHLFRVRLMQRIEAMEVKKTSWSALPGGAFNPRLAFMALLLMLNIASALMLFMHGTPQATGSSGAIAESLTEDYGGPALSYYDDQTTIDR
For B4, the fold repression in the experiment with ECF17_1691 was 1.22; in the experiment with ECF33_375, 3.16; with ECF14_3200, 4.47; with ECF15_436, 5.75; with ECF38_1322 it was 3.12; with ECF04_1609, 7.83. For the same molecule, the fold repression in the experiment with ECF14_1324 is 8.02; in the experiment with ECF22_1147, 5.37; with ECF15_524, 2.88; with ECF28_1040, 1.03; with ECF37_2513, 2.72; with ECF28_1088, 0.742. In addition, the fold repression with ECF16_3622 was found to be 13.1; in the experiment with ECF33_423 it was 3.53.

B5: AS11_987 (protein)
chain: MNKHPDNNLLEAYASGSIDAVSGLVVATHLETCSKCRAYVNQVEASQANTVSESPSEYSPEFDDMLNDIINAEPVNDNVVIQDTAFVNVAGKSFELPKTLVRFSDLVGSWRSYGGKVFSAQIDLGEDARVSLMYIGENVQIPQHTHRGLESTLVLHGGFSDEDGQYEEGDLMVRDASVKHSPFTQEGEDCLCLTVLTEPMIFTQGVARIFNLFGKGLYP
Regarding B5, the fold repression came out at 2.68 with ECF17_1691; 1.99 with ECF33_375; 2.94 with ECF14_3200; 3.32 with ECF15_436; 2.08 in the experiment with ECF38_1322; 2.66 with ECF04_1609. Further, the fold repression with ECF14_1324 is 3.15; with ECF22_1147 it was 2.64; with ECF15_524, 3.35; in the experiment with ECF28_1040, 2.02; in the experiment with ECF37_2513 it was 1.66; with ECF28_1088, 1.97. Moreover, the fold repression turned out to be 5.11 with ECF16_3622 and 2.38 in the experiment with ECF33_423.
